The record followed here is US20220168396A1, “MULTI-RECEPTOR AGONIST AND MEDICAL USE THEREOF” (published 2022).

Square brackets hold non-standard residues; d marks the D form. Ends that are not written are not given here. Aib = CC(C)(N)C(=O)O

This experiment has as its target human glucagon-like peptide-1 receptor (human, UniProt P43220). In words: cell-based or functional assay.

B1: Compound No. 73 (peptide)
peptide: Y[Aib]EGTFTSDYSIYLEEEAAQEFVNWLLAGGPSSGAPPPS-NH2
modifications: N-terminus assumed
SMILES: CC[C@H](C)[C@H](NC(=O)[C@H](CO)NC(=O)[C@H](Cc1ccc(O)cc1)NC(=O)[C@H](CC(=O)O)NC(=O)[C@H](CO)NC(=O)[C@@H](NC(=O)[C@H](Cc1ccccc1)NC(=O)[C@@H](NC(=O)CNC(=O)[C@H](CCC(=O)O)NC(=O)C(C)(C)NC(=O)[C@@H](N)Cc1ccc(O)cc1)[C@@H](C)O)[C@@H](C)O)C(=O)N[C@@H](Cc1ccc(O)cc1)C(=O)N[C@@H](CC(C)C)C(=O)N[C@@H](CCC(=O)O)C(=O)N[C@@H](CCC(=O)O)C(=O)N[C@@H](CCC(=O)O)C(=O)N[C@@H](C)C(=O)N[C@@H](C)C(=O)N[C@@H](CCC(N)=O)C(=O)N[C@@H](CCC(=O)O)C(=O)N[C@@H](Cc1ccccc1)C(=O)N[C@H](C(=O)N[C@@H](CC(N)=O)C(=O)N[C@@H](Cc1c[nH]c2ccccc12)C(=O)N[C@@H](CC(C)C)C(=O)N[C@@H](CC(C)C)C(=O)N[C@@H](C)C(=O)NCC(=O)NCC(=O)N1CCC[C@H]1C(=O)N[C@@H](CO)C(=O)N[C@@H](CO)C(=O)NCC(=O)N[C@@H](C)C(=O)N1CCC[C@H]1C(=O)N1CCC[C@H]1C(=O)N1CCC[C@H]1C(=O)N[C@@H](CO)C(N)=O)C(C)C
As for B1, the “Activity for human GLP-1R (EC50 nM), cAMP HTRF” value (“Activity for human GLP-1R” below) is 0.069 nM.

B2: Compound No. 21 (peptide)
peptide: Y[Aib]EGTFTSDYSIYLDKIAAQEFVQWLLAGGPSSGAPPPSK-NH2
modifications: N-terminus assumed
SMILES: CC[C@H](C)[C@H](NC(=O)[C@H](CCCCN)NC(=O)[C@H](CC(=O)O)NC(=O)[C@H](CC(C)C)NC(=O)[C@H](Cc1ccc(O)cc1)NC(=O)[C@@H](NC(=O)[C@H](CO)NC(=O)[C@H](Cc1ccc(O)cc1)NC(=O)[C@H](CC(=O)O)NC(=O)[C@H](CO)NC(=O)[C@@H](NC(=O)[C@H](Cc1ccccc1)NC(=O)[C@@H](NC(=O)CNC(=O)[C@H](CCC(=O)O)NC(=O)C(C)(C)NC(=O)[C@@H](N)Cc1ccc(O)cc1)[C@@H](C)O)[C@@H](C)O)[C@@H](C)CC)C(=O)N[C@@H](C)C(=O)N[C@@H](C)C(=O)N[C@@H](CCC(N)=O)C(=O)N[C@@H](CCC(=O)O)C(=O)N[C@@H](Cc1ccccc1)C(=O)N[C@H](C(=O)N[C@@H](CCC(N)=O)C(=O)N[C@@H](Cc1c[nH]c2ccccc12)C(=O)N[C@@H](CC(C)C)C(=O)N[C@@H](CC(C)C)C(=O)N[C@@H](C)C(=O)NCC(=O)NCC(=O)N1CCC[C@H]1C(=O)N[C@@H](CO)C(=O)N[C@@H](CO)C(=O)NCC(=O)N[C@@H](C)C(=O)N1CCC[C@H]1C(=O)N1CCC[C@H]1C(=O)N1CCC[C@H]1C(=O)N[C@@H](CO)C(=O)N[C@@H](CCCCN)C(N)=O)C(C)C
Take B2: the “Activity for human GLP-1R” value amounted to 0.043 nM.

B3: Compound No. 7 (peptide)
peptide: Y[Aib]EGTFTSDVSIYLEKEAAKEFVNWLLAGGPSSGAPPPSK-NH2
modifications: N-terminus assumed
SMILES: CC[C@H](C)[C@H](NC(=O)[C@H](CO)NC(=O)[C@@H](NC(=O)[C@H](CC(=O)O)NC(=O)[C@H](CO)NC(=O)[C@@H](NC(=O)[C@H](Cc1ccccc1)NC(=O)[C@@H](NC(=O)CNC(=O)[C@H](CCC(=O)O)NC(=O)C(C)(C)NC(=O)[C@@H](N)Cc1ccc(O)cc1)[C@@H](C)O)[C@@H](C)O)C(C)C)C(=O)N[C@@H](Cc1ccc(O)cc1)C(=O)N[C@@H](CC(C)C)C(=O)N[C@@H](CCC(=O)O)C(=O)N[C@@H](CCCCN)C(=O)N[C@@H](CCC(=O)O)C(=O)N[C@@H](C)C(=O)N[C@@H](C)C(=O)N[C@@H](CCCCN)C(=O)N[C@@H](CCC(=O)O)C(=O)N[C@@H](Cc1ccccc1)C(=O)N[C@H](C(=O)N[C@@H](CC(N)=O)C(=O)N[C@@H](Cc1c[nH]c2ccccc12)C(=O)N[C@@H](CC(C)C)C(=O)N[C@@H](CC(C)C)C(=O)N[C@@H](C)C(=O)NCC(=O)NCC(=O)N1CCC[C@H]1C(=O)N[C@@H](CO)C(=O)N[C@@H](CO)C(=O)NCC(=O)N[C@@H](C)C(=O)N1CCC[C@H]1C(=O)N1CCC[C@H]1C(=O)N1CCC[C@H]1C(=O)N[C@@H](CO)C(=O)N[C@@H](CCCCN)C(N)=O)C(C)C
As to B3, the “Activity for human GLP-1R” value turned out to be 0.016 nM.

B4: Compound No. 79 (peptide)
peptide: Y[Aib]EGTFTSDYSIYLEKIAAQEFVQWLIAGGPSSGAPPPS-NH2
modifications: N-terminus assumed
SMILES: CC[C@H](C)[C@H](NC(=O)[C@H](CCCCN)NC(=O)[C@H](CCC(=O)O)NC(=O)[C@H](CC(C)C)NC(=O)[C@H](Cc1ccc(O)cc1)NC(=O)[C@@H](NC(=O)[C@H](CO)NC(=O)[C@H](Cc1ccc(O)cc1)NC(=O)[C@H](CC(=O)O)NC(=O)[C@H](CO)NC(=O)[C@@H](NC(=O)[C@H](Cc1ccccc1)NC(=O)[C@@H](NC(=O)CNC(=O)[C@H](CCC(=O)O)NC(=O)C(C)(C)NC(=O)[C@@H](N)Cc1ccc(O)cc1)[C@@H](C)O)[C@@H](C)O)[C@@H](C)CC)C(=O)N[C@@H](C)C(=O)N[C@@H](C)C(=O)N[C@@H](CCC(N)=O)C(=O)N[C@@H](CCC(=O)O)C(=O)N[C@@H](Cc1ccccc1)C(=O)N[C@H](C(=O)N[C@@H](CCC(N)=O)C(=O)N[C@@H](Cc1c[nH]c2ccccc12)C(=O)N[C@@H](CC(C)C)C(=O)N[C@H](C(=O)N[C@@H](C)C(=O)NCC(=O)NCC(=O)N1CCC[C@H]1C(=O)N[C@@H](CO)C(=O)N[C@@H](CO)C(=O)NCC(=O)N[C@@H](C)C(=O)N1CCC[C@H]1C(=O)N1CCC[C@H]1C(=O)N1CCC[C@H]1C(=O)N[C@@H](CO)C(N)=O)[C@@H](C)CC)C(C)C
For the molecule B4, the “Activity for human GLP-1R” value amounted to 0.012 nM.
